Results reported in patent publication US7303752B2, “Hookworm vaccine” (The George Washington University, priority 2001, dated 2007).
Values joined by “and” are separate entries in the source; they are usually repeats but may differ in a detail not shown here. Identical values can stand only once.

B1: Ac-TMP: A. caninum putative tissue inhibitor of metalloproteinase, SEQ ID NO: 12; E. coli fusion protein (protein, listed as Ancylostoma caninum)
chain: MRVAIVFIACFAVAHACKCEKKPRPPLEKLLCQSQFVTHAKVTKKRIDGYFIYYDLEHKEVYKPKDRSIPIELFSWREKENCGMPDLEEGKEYLIGGKVTDYGDGDLVISVSRCDLLRNWTDVSGEEKKLLGTFKCENQS
modifications: E. coli fusion partner
notes: E. coli fusion protein
B2: Ac-MEP-1: A. caninum metalloendopeptidase antigen, SEQ ID NO: 14 (protein, listed as Ancylostoma caninum)
chain: MAKLLEVTTGLVVLLGVLGVISVVFNVLTWLKLNENKDDSSPAPKIWNVGEQDNTPVLTNLLVLEKEELAAKLKKTPYEEVDEQTVRQSSVMKLRNIKNALFTIEPVASALPPLRVNDPKYCPSYGEPDKKYAYQEAASYLLSGLDQTVDPCEDLYAFTCNTYLRNHNATDIGVNRIGTYKDAQDDVNAEIVEALEEVNVSDTKWSETERLVKATLFTCVHHTRARKPIDNSKNVLIEMRDLFGGIPFLNHTLKKDIDFFDIMGKFEQNHAMGTLLGAMVSVDFKNVNKHSLFLSQPYLPMARDFYVFPQHTKMVENRVSLINSVLRSFAEAVLDDPSPYLDLMSRSARDVVKLEMQIAMASWPESELRNYAQQHNPRTLNQLKAAYPAIKWDSYFNALLSSVQGVDMNRQNIILTQPSYFGWLNALFNGGADDKTIANYLLVHLILEEADFLGGALKTMVQKSDYVPYALGRGKGVTRVGQQLTRSHDDTVEDANIQCLNSMMTYMPFGPGYVYVKSRKNRDDVVKDIEHQTELVFKNFVNMIGNLNWMTDASLELAMEKADTMVKNYGWPKDLFGNFRDSSKIDAYHKKDYGNIINLYKENITHNYYHIRRTMIKGYSNHESLRLLTEAPKRDHFLLSPALVNAWYIPERNSIAFPYAFWNPPYYNYEYPQACNYAGQGGTAGHELVHGFDDQGVQFAADGSLSDCTWIECGWLEEKSKKGFSDMAQCVVTQYSTQCCPQTGGVTHCANGATTQGENIADLGGQLAAYRAYREYITKERGEEEKRLPGLEQYTPNQIFWITYGYSWCMSQTDSSLIRQLLTDVHSPGSCRVNQVMQDIPEFALDFGCTMGQKMYPEPEQRCPVWVAE
B3: Ac-API: A. caninum aspartyl protease inhibitor antigen, SEQ ID NO: 38 (protein, listed as Ancylostoma caninum)
chain: MKLLALSALFALAFAAPRDKRLAVSTITVTGGLGLSTGCVVTGNVLYANGFRVREITPSEQQELVKYQNDVAEYKTALKQAIKEREEKIRARLAGKKVKAVESTNQEDLPKPPQKPSFCTPEDTTQFFFEGCMIQNNKIYVGNTFARDLTQPEISELKEFEKKFKVYQDYVQKQAEQQVNSLFGGSDFFSALFSGGETSKPSTTTVAPELPEDAPEQPPTPNFCTRII

Assays:
Format in all cases: in vivo, dog
A. caninum [1] = assay: Canine vaccine trial with Ac-TMP, Ac-AP, Ac-APR-1, oral challenge with 400 A. caninum L3
Text: Study dogs and animal husbandry: Following protocol approval by The George Washington University Institutional Animal Care and Use Committee (IACUC), purpose bred, parasite naïve, male beagles 8±1 week of age were purchased, identified by ear tattoo, and maintained in the AALAC (Association for Assessment and Accreditation of Laboratory Animal Care) accredited George Washington University Animal Research Facility. The dogs were housed in a room dedicated for the study, at a room temperature of 70±4° F., with 10-15 air changes per hour comprised of 100 percent fresh air, and 12 hr light cycles alternating with 12 hr dark cycles. The airflow and timer functions were monitored daily. The dogs were fed on a diet of Teklad Certified Dog Chow #8727, supplemented with a canned soft diet in the event of anorexia. The drinking water was piped from a filter plant and delivered via automatc water system; water analysis was performed by the U.S. Army Corps of Engineers. Water from the facilities automatic system is cultured for bacteria and fungi annually. The pens were flushed daily and sanitized every two weeks. Dogs within a given study group were permitted to live together and socialize prior to the hookworm larval challenge, but were caged individually post-infection. All dogs were quarantined for approximately one week before beginning the vaccine trial. Prior to vaccination a complete blood count (CBC), serum chemistries, and a pre-vaccination serum sample were obtained.
Vaccine study design and sample size: The vaccine trial was designed to test three different antigens, each formulated with alum, as well as an alum adjuvant control. A total of 24 dogs were randomly assigned into four groups comprised of 6 dogs each. The canine sample size was selected on the ability to detect a 40-50 percent reduction in the numbers of adult hookworms in the small intestines of the vaccinated group relative to control dogs, at a statistical power of 80 percent (alpha=0.05, two-tailed). The data were derived from the mean and standard deviation of adult hookworms previously recovered from age-matched dogs infected with 400 A. caninum L3 (Hotez et al, 2002).
Recombinant Antigens: Each group of 6 dogs was vaccinated with recombinant hookworm proteins expressed as fusion proteins either in Escherichia coli or in an insect cell line with baculovirus. Ac-AP (Cappello et al, 1995; 1996) and Ac-TMP, were expressed in E. coli as pET 28 (Novagen) fusion proteins containing a polyhistidine tag (Cappello et al, 1996). Ac-APR-1 (Harrop et al, 1996) was expressed in a baculovirus pBacPAK6 vector (Clontech), modified to contain a polyhistidine-encoding sequence and additional restriction enzyme sites (Brindley et al, 2001). Recombinant Ac-AP and Ac-TMP fusion proteins were then purified by nickel affinity chromatography, followed by a second step of purification. In the case of Ac-AP (Cappello et al, 1995; 1996), the recombinant protein was purified by mono-S (Amersham-Pharmacia) ion exchange chromatography, while Ac-TMP (Zhan et al, 2002) was purified by superdex 75 (Amersham-Pharmacia) gel filtration chromatography. Ac-APR-1 (Harrop et al, 1996) was purified by substrate affinity chromatography using pepstatin agarose (Brindley et al, 2001). The antigen stock protein concentration was determined by Pierce Micro BCA assay (Pierce Chemicals) or by the absorbance of the sample at […] using an extinction coefficient that was calculated from the deduced amino acid composition of the fusion protein. The amount of alum adsorbed protein in each dose of antigen was measured by the Pierce Micro BCA assay using a bovine serum albumin standard. The relative purity of each of the antigens relative to contaminating E. coli or insect cell proteins was determined by analysis on sodium dodecyl sulfate polyacrylamide gel electrophoresis (SDS-PAGE). […]

[2] = system: antibody to recombinant proteins; assay: Pre-challenge antibody titer ELISA, trial with Ac-ASP-2, Ac-API, Ac-MEP-1, Ac-APR-1 in AS03; conditions: for antibody response, in words: AS03
Experimental: (§1) The vaccine trial was designed to test Ac-API, Ac-ASP-2, Ac-MEP-1, Ac-APR-1 formulated with Adjuvant System 03 (AS03) obtained from GlaxoSmithKline (GSK). The rationale for selecting AS03 as an adjuvants is discussed elsewhere (Stoute et al, 1997). The ten purpose bred beagles were randomized into five arms: immunized with the adjuvant-formulated recombinant proteins or adjuvant only (control). To make six doses of antigen formulated with AS03, […] of recombinant protein (0.3 ml of antigen at a concentration of 2 mg.ml^−1) was mixed with 1.2 ml of 20 mM Tris-HCl, 0.5 M NaCl, pH 7.9 and 1.5 ml of AS03; the contents of the tube were vortex mixed for 30 seconds then shaken at low speed for 10 minutes. Dogs were immunized with 100 g of formulated antigen in a final volume of 0.5 ml. ASO3 only control was prepared as described above, with PBS included instead of antigen. Formulation of GSK adjuvants were conducted according to the protocol provided by GSK. All injections were performed intramuscularly (IM). Test and control articles were prepared on the day of injection. All animals received 4 immunizations approximately 3 weeks apart.
Beagles were immunized with formulated Ac-ASP-2 as previously described (Loukas et al, 2004). The vaccines were administered IM three times beginning at age 62+/−4 days. Boosts were administered to the dogs at intervals of 21 days. Blood was drawn at least once every 21 days and serum was separated from cells by centrifugation. Each animal's specific antibody response was evaluated by indirect ELISA using serum taken prior to the infective challenge (Loukas et al, 2004). Recombinant Ac-ASP-2 was coated onto microtiter plates at a concentration of 5 g.ml^−1. Dog sera were titrated between 1:100 and 1:2×10^6 to determine endpoint titers. Anti-canine IgG1, IgG2 and IgE antibodies conjugated to horse-radish peroxidase (Bethyl Laboratories) were used at a dilution of 1:1,000.

A. caninum [3] = assay: Canine vaccine trial with Ac-ASP-2, Ac-API, Ac-MEP-1, Ac-APR-1 in AS03, footpad challenge with 500 A. caninum L3; conditions: for worm burdens, Maximum / worm burdens, Minimum / worm burdens, Mean / worm burdens, Median: 5 dogs; for worm burdens, Mean: ASO3 control 203.8000; for worm burdens, Median: ASO3 control 215.0000; for worm burden, Colon, Male, Average / worm burden, Colon, Female, Average / worm burden, Intestine, Female, Average / worm burden, Intestine, Male, Average / worm burden, Total, Average: group average; for worm burden, Colon, Male, Average: AS03 control 5; for worm burden, Colon, Female, Average: AS03 control 9; for worm burden, Intestine, Female, Average: AS03 control 95; for worm burden, Intestine, Male, Average: AS03 control 96; for worm burden, Total, Average: AS03 control 204; for worm burden, Colon, Female / worm burden, Colon, Male / worm burden, Intestine, Female / worm burden, Intestine, Male / worm burden, Total: individual dogs
Experimental: as §1, with “The ten purpose bred beagles were randomized into five arms: immunized with the adjuvant-formulated recombinant proteins or adjuvant only (control).” left out
A. caninum larvae were cultured from eggs collected in the feces of infected dogs. All hookworms in the infective challenge were approximately equal age (17±7 days post hatching). The species identity of the infective larvae were validated using PCR. All dogs were infected by the footpad method with the same dose of 500 L3 of A. caninum (Zhan et al, 2001). Larval challenge occurred on one of three consecutive days (at age 120+/−9 days). Fourteen-sixteen days after the final immunization, dogs were anesthetized using a combination of ketamine and xylazine (20 mg.kg^−1 and 10 mg.kg^−1 respectively), and 500 A. caninum L3 in a final volume of […] were applied to the footpad.

Row | Molecule | antibody response, in words [2] | Pre-challenge antibody titer, IgG1, GEOMEAN ([2]; geometric mean of group) | Pre-challenge antibody titer, IgG2, GEOMEAN ([2]; geometric mean of group) | Pre-challenge antibody titer, IgG1 ([2]; individual dogs) | Pre-challenge antibody titer, IgG2 ([2]; individual dogs) | worm burdens, Maximum (A. caninum [3]) | worm burdens, Minimum (A. caninum [3]) | worm burdens, Mean (A. caninum [3]) | worm burdens, Median (A. caninum [3]) | worm burden, Colon, Male, Average (A. caninum [3]) | worm burden, Colon, Female, Average (A. caninum [3]) | worm burden, Intestine, Female, Average (A. caninum [3]) | worm burden, Intestine, Male, Average (A. caninum [3]) | worm burden, Total, Average (A. caninum [3]) | worm burden, Colon, Female (A. caninum [3]) | worm burden, Colon, Male (A. caninum [3]) | worm burden, Intestine, Female (A. caninum [3]) | worm burden, Intestine, Male (A. caninum [3]) | worm burden, Total (A. caninum [3]) | also measured
1 | B1 |  |  |  |  |  |  |  |  |  |  |  |  |  |  |  |  |  |  |  | % Decrease of adult hookworms in the small intestines relative to alum-injected dogs (A. caninum [1]; group): 10.8%; % Increase of adult hookworms in the colons relative to alum-injected dogs (A. caninum [1]; group): 500%; adult A. caninum hookworms in the colons, Median (A. caninum [1]; group median, alum control 4): 32; adult hookworms in the small intestines, Median (A. caninum [1]; group median, alum control 180): 161; ratio of adult hookworms in the small intestine relative to the colon (A. caninum [1]; vaccinated group, alum-injected dogs 43.9): 6.6
2 | B2 | weak | 100 | 1,204 | 100 | 1,500 (4×) and 500 | 293.00 | 109.00 | 183.4000 | 129.0000 | 3 | 6 | 91 | 87 | 183 | 0 and 2 and 7 and 9 and 12 | 0 and 1 and 2 and 5 and 8 | 64 and 58 and 153 and 130 and 50 | 65 and 47 and 131 and 124 and 49 | 129 and 108 and 293 and 268 and 119 | worm burden reductions in three out of the five vaccinated dogs (A. caninum [3]; versus control mean): exceeded 36%
3 | B3 | robust | 3,612 | 32,511 | 4,500 (4×) and 1,500 | 40,500 (4×) and 13,500 | 237.00 | 146.00 | 187.800 | 167.0000 | 5 | 12 | 83 | 87 | 188 | 3 and 1 and 12 and 24 and 21 | 3 and 0 and 2 and 9 and 10 | 86 and 83 and 66 and 91 (2×) | 54 and 83 and 80 and 105 and 115 | 146 and 167 and 160 and 229 and 237 | Pre-challenge antibody titer, IgE, GEOMEAN ([2]; geometric mean of group): 100; Pre-challenge antibody titer, IgE ([2]; individual dogs): 100; fecal eggs (fecundity), in words (A. caninum [3]; relative to the control group): significant reduction in fecal eggs; worm burden, in words (A. caninum [3]; versus AS03 control): no remarkable reduction in worm burden
